Paper PMC11410943

Substrate: Cn1c(=O)ccc2ccc(F)c(CCNC[C@H]3CN(c4cnc5c(n4)NC(=O)CO5)C(=O)O3)c21
Assay: OAT3 transport in HEK293 cells
Type: in vitro ADME, human
Conditions: other: HEK293; 37.0 °C

B1: OAT3 (Homo sapiens) (protein)
chain: MTFSEILDRVGSMGHFQFLHVAILGLPILNMANHNLLQIFTAATPVHHCRPPHNASTGPWVLPMGPNGKPERCLRFVHPPNASLPNDTQRAMEPCLDGWVYNSTKDSIVTEWDLVCNSNKLKEMAQSIFMAGILIGGLVLGDLSDRFGRRPILTCSYLLLAASGSGAAFSPTFPIYMVFRFLCGFGISGITLSTVILNVEWVPTRMRAIMSTALGYCYTFGQFILPGLAYAIPQWRWLQLTVSIPFFVFFLSSWWTPESIRWLVLSGKSSKALKILRRVAVFNGKKEEGERLSLEELKLNLQKEISLAKAKYTASDLFRIPMLRRMTFCLSLAWFATGFAYYSLAMGVEEFGVNLYILQIIFGGVDVPAKFITILSLSYLGRHTTQAAALLLAGGAILALTFVPLDLQTVRTVLAVFGKGCLSSSFSCLFLYTSELYPTVIRQTGMGVSNLWTRVGSMVSPLVKITGEVQPFIPNIIYGITALLGGSAALFLPETLNQPLPETIEDLENWSLRAKKPKQEPEVEKASQRIPLQPHGPGLGSS
  Km: 121 µM
  Vmax: 76.1 pmol/mg/min
